Reference: EP4630447A2

How the values were obtained:
Assay in all cases: sVNT, Table 2
[1] = target: SARS-CoV-2 spike trimer, BQ.1 (SARS-CoV-2)
[2] = target: SARS-CoV-2 spike trimer, BQ.1.1 (SARS-CoV-2)
[3] = target: SARS-CoV-2 spike trimer, XBB (SARS-CoV-2)
[4] = target: SARS-CoV-2 spike trimer, XBB.1 (SARS-CoV-2)
[5] = target: SARS-CoV-2 spike trimer, XBB.1.5 (SARS-CoV-2)

Measured: IC50

Bebtelovimab (antibody)
> 1 µg/mL: all assays above
